Data: paper PMC2367706
Like-named read-outs stand apart in the source and are kept apart here.

T1: GST:HD (UniProt Q01826 640-763)
T1 sequence: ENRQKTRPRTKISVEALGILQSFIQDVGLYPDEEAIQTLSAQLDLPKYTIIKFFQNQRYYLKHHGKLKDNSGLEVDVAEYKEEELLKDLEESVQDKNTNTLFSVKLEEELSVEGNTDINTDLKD

T2: GST:CD+HD (UniProt Q01826 255-763)
T2 sequence: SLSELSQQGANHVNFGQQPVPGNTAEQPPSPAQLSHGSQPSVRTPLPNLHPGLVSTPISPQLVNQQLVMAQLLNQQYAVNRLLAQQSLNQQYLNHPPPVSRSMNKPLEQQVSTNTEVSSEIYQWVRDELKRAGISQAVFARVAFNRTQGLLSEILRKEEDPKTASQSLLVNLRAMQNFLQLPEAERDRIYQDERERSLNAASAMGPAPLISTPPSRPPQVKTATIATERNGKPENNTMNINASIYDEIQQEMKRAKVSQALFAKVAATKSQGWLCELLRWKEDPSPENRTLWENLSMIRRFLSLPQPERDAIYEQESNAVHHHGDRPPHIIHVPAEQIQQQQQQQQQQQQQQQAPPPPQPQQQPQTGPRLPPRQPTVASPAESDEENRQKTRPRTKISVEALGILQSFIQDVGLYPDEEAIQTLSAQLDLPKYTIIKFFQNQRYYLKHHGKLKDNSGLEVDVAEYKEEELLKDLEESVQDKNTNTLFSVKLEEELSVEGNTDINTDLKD

B1: CSBS dimer (probe 1) (dsDNA)
DNA 1: TATTAGTAATAATATTAGTAATAA
DNA 2: TTATTACTAATATTATTACTAATA
B2: probe 9 (dsDNA)
DNA 1: TATTAGTAATCATATTAGTAATCA
DNA 2: TGATTACTAATATGATTACTAATA
B3: probe 10 (dsDNA)
DNA 1: TATTAGTAATACTATTAGTAATAC
DNA 2: GTATTACTAATAGTATTACTAATA
B4: probe 13 (IgH MAR core dimer) (dsDNA)
DNA 1: AATTTCTAATATAATTTCTAATAT
DNA 2: ATATTAGAAATTATATTAGAAATT
B5: probe 3 (dsDNA)
DNA 1: TATTAGCAATAATATTAGCAATAA
DNA 2: TTATTGCTAATATTATTGCTAATA
B6: probe 5 (dsDNA)
DNA 1: TATTAATAATAATATTAATAATAA
DNA 2: TTATTATTAATATTATTATTAATA

Tests used:
Experiment in all cases: EMSA
GST:HD = biological target: T1, GST:HD
GST:CD+HD [1] = biological target: T2, GST:CD+HD
GST:CD+HD [2] = biological target: T2, GST:CD+HD; remark: listed apart in the source

| Binder | Kd (GST:HD) [nM] | Kd (GST:CD+HD [1]) [nM] | Kd (GST:CD+HD [2]) [nM] |
| --- | --- | --- | --- |
| B1 | 200 | 10 | – |
| B2 | – | – | 10 |
| B3 | 200 | – | 20 |
| B4 | – | – | 10 |
| B5 | – | – | 50 |
| B6 | – | – | 10 |
